According to US20260125477A1:

Columns and labels:
[1] = target: human B7-H3 on B7-H3+ cells (human) (UniProt Q5ZPR3); assay: FACS, HUVEC cells (human B7-H3-expressing)
[2] = target: human B7-H3 on B7-H3+ cells (human) (UniProt Q5ZPR3); assay: FACS, NCI-H520 cells (B7-H3+ tumor cells) [Continued) C]
[3] = target: human B7-H3 on B7-H3+ cells (human) (UniProt Q5ZPR3); assay: FACS, NCI-H520 cells (B7-H3+ tumor cells) [Continued) D]
[4] = target: human B7-H3 on B7-H3+ cells (human) (UniProt Q5ZPR3); assay: FACS, mature human dendritic cells derived from PBMC (B7-H3+ normal cells)
[5] = target: human B7-H3 on B7-H3+ cells (human) (UniProt Q5ZPR3); assay: FACS, human prostate smooth muscle cells (B7-H3+ normal cells)
[6] = target: human B7-H3 on B7-H3+ cells (human) (UniProt Q5ZPR3); assay: FACS, NCI-H520 cells (B7-H3+ tumor cells)
[7] = target: human B7-H3 on B7-H3+ cells (human) (UniProt Q5ZPR3); assay: FACS, human dermal fibroblasts (B7-H3+ normal cells)
[8] = target: human B7-H3 on B7-H3+ cells (human) (UniProt Q5ZPR3); assay: FACS, MCF-7 cells (B7-H3+ tumor cells)
[9] = target: human B7-H3 on B7-H3+ cells (human) (UniProt Q5ZPR3); assay: FACS, HepG2 cells (B7-H3+ tumor cells)
[10] = target: human B7-H3 on B7-H3+ cells (human) (UniProt Q5ZPR3); assay: FACS, SK-OV-3 cells (B7-H3+ tumor cells)
[11] = target: human B7-H3 on B7-H3+ cells (human) (UniProt Q5ZPR3); assay: FACS, A549 cells (B7-H3+ tumor cells)

Sequence of human B7-H3 on B7-H3+ cells (human) (Q5ZPR3 29-534): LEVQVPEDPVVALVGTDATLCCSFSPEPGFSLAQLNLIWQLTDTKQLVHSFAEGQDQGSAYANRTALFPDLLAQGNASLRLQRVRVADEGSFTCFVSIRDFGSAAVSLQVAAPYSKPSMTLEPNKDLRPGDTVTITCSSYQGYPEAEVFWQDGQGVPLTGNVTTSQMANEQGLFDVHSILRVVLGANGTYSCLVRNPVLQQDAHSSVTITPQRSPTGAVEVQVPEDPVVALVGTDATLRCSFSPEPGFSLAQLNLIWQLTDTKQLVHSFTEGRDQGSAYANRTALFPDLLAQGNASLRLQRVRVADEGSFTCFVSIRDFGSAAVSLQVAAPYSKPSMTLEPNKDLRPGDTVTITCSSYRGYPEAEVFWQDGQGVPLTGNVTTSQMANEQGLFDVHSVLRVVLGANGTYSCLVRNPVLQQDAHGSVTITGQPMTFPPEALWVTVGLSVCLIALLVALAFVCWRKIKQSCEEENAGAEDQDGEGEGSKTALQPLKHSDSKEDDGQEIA

EC50 (read off the curve) [1]	EC50 (read off the curve) [2]	EC50 (read off the curve) [3]	EC50 (read off the curve) [4]	EC50 (read off the curve) [5]	EC50 (read off the curve) [6]	EC50 (read off the curve) [7]	EC50 (read off the curve) [8]	EC50 (read off the curve) [9]	EC50 (read off the curve) [10]	EC50 (read off the curve) [11]	Binder
0.4 µg/mL	0.2 µg/mL										6B5-Mut (antibody, human IgG1, kappa) heavy: QVQLVESGPGLVKPSQTLSLTCTVSDGSISSGGYYWSWIRQHPGKGLEWIGYIYYSGGTYYSPSLKSRVTISVDTSKNQFSLKLTSVTAADTAVYYCARRAGYSSSFDSWGQGILVTVSSASTKGPSVFPLAPSSKSTSGGTAALGCLVKDYFPEPVTVSWNSGALTSGVHTFPAVLQSSGLYSLSSVVTVPSSSLGTQTYICNVNHKPSNTKVDKRVEPKSCDKTHTCPPCPAPELVGGPSVFLLPPKPKDTLMISRTPEVTCVVVDVSHEDPEVKFNWYVDGVEVHNAKTKPPEEQYNSTLRVVSVLTVLHQDWLNGKEYKCKVSNKALPAPIEKTISKAKGQPREPQVYTLPPSREEMTKNQVSLTCLVKGFYPSDIAVEWESNGQPENNYKTTPLVLDSDGSFFLYSKLTVDKSRWQQGNVFSCSVMHEALHNHYTQKSLSLSPGK light: EIVLTQSPLSLPVTPGEPASISCRSSQSLLYSNGYTYLDWYLQKPGQSPQFLIYLGFNRASGVPDRFSGSGSGTDFTLKISRVEAEDVGVYYCMQGLQTPYTFGQGTKLEIKRTVAAPSVFIFPPSDEQLKSGTASVVCLLNNFYPREAKVQWKVDNALQSGNSQESVTEQDSKDSTYSLSSTLTLSKADYEKHKVYACEVTHQGLSSPVTKSFNRGEC
0.05 µg/mL		0.03 µg/mL									10D7-Mut (antibody, human IgG1, kappa) heavy: QVQLVQSGPGLVKPSETLSLTCTVSGGSISRSSYYWGWIRQPPGKGLEWIGNIFYAGSTYYNPSLKSRVTISVDTSKNQFSLKLSSVTAADTAVYYCARRITGTTGWFDPWGQGTLVTVSSASTKGPSVFPLAPSSKSTSGGTAALGCLVKDYFPEPVTVSWNSGALTSGVHTFPAVLQSSGLYSLSSVVTVPSSSLGTQTYICNVNHKPSNTKVDKRVEPKSCDKTHTCPPCPAPELVGGPSVFLLPPKPKDTLMISRTPEVTCVVVDVSHEDPEVKFNWYVDGVEVHNAKTKPPEEQYNSTLRVVSVLTVLHQDWLNGKEYKCKVSNKALPAPIEKTISKAKGQPREPQVYTLPPSREEMTKNQVSLTCLVKGFYPSDIAVEWESNGQPENNYKTTPLVLDSDGSFFLYSKLTVDKSRWQQGNVFSCSVMHEALHNHYTQKSLSLSPGK light: DIQLTQSPSSLSASVGDRVTITCRASQGIRNDLGWYQQKPGKAPKLLIYAASTLQSGVPSRFSGSGSGTDFTLTISSLQPEDFATYYCLQDYNYPRTFGQGTKVEIKRTVAAPSVFIFPPSDEQLKSGTASVVCLLNNFYPREAKVQWKVDNALQSGNSQESVTEQDSKDSTYSLSSTLTLSKADYEKHKVYACEVTHQGLSSPVTKSFNRGEC
			0.3 µg/mL	0.1 µg/mL	0.3 µg/mL	0.2 µg/mL					Enoblituzumab (antibody, human IgG1, kappa, V domains shown) VH: EVQLVESGGGLVQPGGSLRLSCAASGFTFSSFGMHWVRQAPGKGLEWVAYISSDSSAIYYADTVKGRFTISRDNAKNSLYLQMNSLRDEDTAVYYCGRGRENIYYGSRLDYWGQGTTVTVSS VL: DIQLTQSPSFLSASVGDRVTITCKASQNVDTNVAWYQQKPGKAPKALIYSASYRYSGVPSRFSGSGSGTDFTLTISSLQPEDFATYYCQQYNNYPFTFGQGTKLEIKR
0.4 µg/mL	0.1 µg/mL		1 µg/mL	0.3 µg/mL	0.3 µg/mL	0.4 µg/mL	0.4 µg/mL	0.6 µg/mL	0.7 µg/mL	2 µg/mL	6B5 (antibody, human IgG1, kappa, V domains shown) VH: QVQLVESGPGLVKPSQTLSLTCTVSDGSISSGGYYWSWIRQHPGKGLEWIGYIYYSGGTYYSPSLKSRVTISVDTSKNQFSLKLTSVTAADTAVYYCARRAGYSSSFDSWGQGILVTVSS VL: EIVLTQSPLSLPVTPGEPASISCRSSQSLLYSNGYTYLDWYLQKPGQSPQFLIYLGFNRASGVPDRFSGSGSGTDFTLKISRVEAEDVGVYYCMQGLQTPYTFGQGTKLEIKR
0.05 µg/mL		0.03 µg/mL	0.06 µg/mL		0.3 µg/mL			0.4 µg/mL	0.7 µg/mL		10D7 (antibody, human IgG1, kappa, V domains shown) VH: QVQLVQSGPGLVKPSETLSLTCTVSGGSISRSSYYWGWIRQPPGKGLEWIGNIFYAGSTYYNPSLKSRVTISVDTSKNQFSLKLSSVTAADTAVYYCARRITGTTGWFDPWGQGTLVTVSS VL: DIQLTQSPSSLSASVGDRVTITCRASQGIRNDLGWYQQKPGKAPKLLIYAASTLQSGVPSRFSGSGSGTDFTLTISSLQPEDFATYYCLQDYNYPRTFGQGTKVEIKR
